Results published in US20250355001A1 (GTINVENT, published 2025).
Like-named read-outs stand apart in the source and are kept apart here.

T1: tau fragment 1-49 (human)
T1 construct: also called Tau 1-49
T1 peptide: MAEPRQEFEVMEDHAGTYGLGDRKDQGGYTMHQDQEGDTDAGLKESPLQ

T2: biotinylated tau peptide 412-441 (N-terminal biotin)
T2 peptide: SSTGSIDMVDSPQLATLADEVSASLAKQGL

B1: 3aH6 scAb (scFv, not shown: small tags and cut ends)
scFv: QVQLQESGPSLVKPSQTLSLTCTVSGFSLSSNGVGWVRQAPGKVPEWLGDISSVGKKYANPALKSRLSFTRDTSKSQVSLSLSSVTTEDTAVYYCVKCRDGGVTYGYDIDYWGPGLLVTASSEGKSSGASGESKVDDQAVVTQPSSVSGSLGQSVSITCSGSSGNVGYGDYVSWFQQFHGSAPKLLIYGATNLASGVPARFSGSRSGNTATLTISSLHAEDEADYYCASYDSSSGGVFGSGTRLTVLG
notes: scAb
B2: 412B9 (scFv)
scAb: QVQLQESGPSLVKPSQTLSLTCTVSGFSVISDSVAWVRQAPGKVPEWLGASGSSGNKYYNPALKSRLSITRDTSKSQVSLSLSSVTTEDTAVYYCARGIIAGVDVWGRGLLVSVSSEGKSSGASGESKVDDQAVLTQPSSVSGALGQRVSITCSGSSSNVGYGDYVGWYQQVPGSAPKLLIYGAASRASGVPDRFSGSRSGNTATLTISSLQAEDEADYYCASYDSSDGGVFGSGTRLTVLG
B3: E1E8 scAb (scFv, not shown: small tags and cut ends)
scFv: QVQLQESGPSLVKPSQTLSLTCTVSGFSLTDWGVAWVRQAPGKALEWLGTMRSGGTTDDNPALKSRLSITRDTSKSQVSLSLSSVTTEDMAMYYCARGYLSGVHYAWGRGLLVTVSSEGKSSGASGESKVDDQAVLTQPSSVSGSLGQSVSITCSGSSSNVGDGRYVSWFQQVPGSAPKLLIYDTTSRASGVPDRFSGSRSGNTATLIITSLQAEDEADYYCASIDSGNNLLFGSGTRLTVLG
notes: scAb
B4: 412E6 (scFv)
scAb: QVQLQESGPSLVKPSETLSLTCTVSGFSLTNYGVGWVRQAPGKALEWLGNIYSGGSTYYNPALKSRLSITRDTSKSQVSLSLNSVTLEDTAVYYCGRGGVGSVDVWGPGLLVTVSSEGKSSGASGESKVDDQAVLTQPPSVSGSPGQRVSITCSGGRNNIGRGTFVDWYQQLPGSGLKTVIYGTDRRPPGVPDRFSGSKTGNAATLTITSLQAEDEADYWCATYDYSNDMIILGSGTRLTVLG
B5: 3bF4 scAb (scFv, not shown: small tags and cut ends)
scFv: QVQLQESGPSLVKPSQTLSLTCTVSGFSLSSNGVGWVRQAPGKVPEWLGDISSVGKKYANPALKSRLSFTRDTSKSQVSLSLSSVTTEDTAVYYCVKCRDGGVTYGYDIDYWGPGLLVTVSSEGKSSGASGESKVDDQAVLTQPSSVSKSTGQTVSITCSGSSSNVGLRNYVTWFQQVPGSAPKLLIYGATSRASGIPDRFSGSRSGNTATLIISSLQAEDEADYYCASADTNDGGVFGSGTRLTVLG
notes: scAb
B6: 412E10 scAb (scFv, not shown: small tags and cut ends)
scFv: QVQLQESGPSLVKPSQTLSLTCTVSGFSVISDSVAWVRQAPGKVPEWLGASGSSGNKYYNPALKSRLSITRDTSKSQVSLSLSSVTTEDTAVYYCARGIIAGVDVWGRGLLVTVSSEGKSSGASGESKVDDQAVLTQPSSVSGSLGQRVSITCSGSSSNVGYGNYVGWYQQVPGSAPKLLIYGTAIRASGVPDRFSGSRSGDTATLTITSLQAEDEADYYCASYQSNYAFFGSGTRLTVLG
notes: scAb
B7: 3aB7 scAb (scFv, not shown: small tags and cut ends)
scFv: QVQLQESGPSLVKPSQTLSLTCTVSGFSLTSNGVGWVRQAPGKVPEWVGDKSSAGKTYGNPALKSRLSITRDTSKSQVSLSLSSVTTEDTAVYYCVRCRDGGVTYGYDVDYWGPGLLVTVSSEGKSSGASGESKVDDQAVLTQPSSVSKSLGQSVSITCSGSSSNVGYGDVVSWFQQFPGSAPKLLIFGTTTRASGVPDRFSGSRSGNAATLTINSLQAEDEADYYCASFDSDSGGIAGSGTRLTVLG
notes: scAb
B8: CA12 scAb (scFv, not shown: small tags and cut ends)
scFv: QVQLQGSGPSLVKPSQTLSLTCTVSGFSFDSYYVGWVRQAPGKALEWLGNIYSTGRAFYNPALKSRLSITRDTSKSQVSLSVSSVTIEDTALYYCVRGSYYHGGGNGMVDFFDYWSPGLLVTVSSEGKSSGASGESKVDDQVVRTQPSSVSGSLGQRVSITCSGSSSNVGYGNYVGWFQQVPGSAPKLLIYAATSRASGVPDRFSGSRSGNTATLTIDSLQAEDEADYYCSSYQRGNTGVFGSGTRLTVLG
notes: scAb
B9: 3aD3 scAb (scFv, not shown: small tags and cut ends)
scFv: QVQLQESGPSLVKPSQTLSLTCTVSGFSLTSNGVGWVRRAPGKVPEWVGDISSGGKVYGHPALKSRLSITRDTSKSQVSLSVSSVTSEDTAVYYCVRCRDGGVSYGYDSDYWGPGLLVTVSSEGKSSGASGESKVDDQAVVTQPSSVSKSLGQSVSITCSGSSSNVGYGDYVGWFQQVPGSAPKLLIYGVTERASGVPDRFSGSRSGNTATLTISSIQAEDEADYYCASYDDSSGGIFGSGTRLTVLG
notes: scAb
B10: 3bG4 scAb (scFv, not shown: small tags and cut ends)
scFv: QVQLQESGPSLVKPSQTLSLTCTISGFSLISNGVGWVRQAPGKVPEWVGDIASSGKAYSNPALKSRLSITRDTSKSQVSLSLRSVTTEDTAVYYCVRCRDGGVTYGYDIDYWGPGLLVTVSSEGKSSGASGESKVDDQAVLTQPSSVSKSLGQSVSITCSGSTSNVGSGNDVSWFQQVPGSAPKLLFYGATNRASGVPDRFSGSRSGNTATLTITSLQAEDEADYYCGSYDSNSGGIFGSGTRLTVLG
notes: scAb

Assays:
tau fragment 1-49 = molecular target: T1, tau fragment 1-49; experiment: direct ELISA
Protocol: (§1) A series of binding ELISA was performed using various truncated versions of the tau protein and 13mer peptide libraries spanning the entire hT40 molecule for mapping the epitopes of anti-tau scAbs (Full list of protein antigens used is given in Table 14). In general, ELISA plates were coated with 1 μg/ml hT40 or dGA or dGAE or other truncated versions of the protein and in the case of biotinylated peptides, plates were coated with 5 μg/ml Streptavidin followed by 1 μg/ml biotinylated peptide. The plates were blocked with 2% MPBS and scAb samples added at desired starting concentrations and double diluted across the plate. Binding was detected using anti-Human C Kappa HRP conjugated secondary antibody and the resulting immunoreaction was developed and absorbance values measured as described above.

[1] = molecular target: T3, full length human tau protein 2N4R (hT40) (human, UniProt P10636 1-758); experiment: SPR, scAb captured, tau analyte
T3 construct: recombinant; also called T441
Protocol: (§2) The capture antibody was diluted 1/100 in 10 mM Sodium acetate buffer pH 5.0 and passed over the activated chip surface for a period of at least 420 s. Final ligand immobilisation levels over 12,000 RU were deemed to be satisfactory.
(§3) The scAb to be tested was added only to flow cell 2 so that flow cell 1 could act as a control to subtract any interaction with the analyte and the chip surface. […] The multi-cycle protocol was as follows-Three start-up cycles composed of an initial capture, to the desired level, of the scAb to be tested was performed followed by a 30 s injection of glycine buffer pH 2.0 after each cycle to regenerate the chip surface. […] The target was added for a 120 s association period and 420 s dissociation period followed by another regeneration, 30 s injection of glycine buffer pH 2.0 in between each cycle.
(§4) The single cycle kinetics protocol was similar and utilised the same level of scAb capture. […] In single cycle kinetics the regeneration step was performed only after the final analyte concentration was added. Binding responses were analysed in Biacore X100 evaluation software and data fitted to a 1:1 binding model to obtain kinetic and affinity characterisation.
Target sequence in this assay (P10636 other isoform, or with tags, fused parts or gaps limits assumed): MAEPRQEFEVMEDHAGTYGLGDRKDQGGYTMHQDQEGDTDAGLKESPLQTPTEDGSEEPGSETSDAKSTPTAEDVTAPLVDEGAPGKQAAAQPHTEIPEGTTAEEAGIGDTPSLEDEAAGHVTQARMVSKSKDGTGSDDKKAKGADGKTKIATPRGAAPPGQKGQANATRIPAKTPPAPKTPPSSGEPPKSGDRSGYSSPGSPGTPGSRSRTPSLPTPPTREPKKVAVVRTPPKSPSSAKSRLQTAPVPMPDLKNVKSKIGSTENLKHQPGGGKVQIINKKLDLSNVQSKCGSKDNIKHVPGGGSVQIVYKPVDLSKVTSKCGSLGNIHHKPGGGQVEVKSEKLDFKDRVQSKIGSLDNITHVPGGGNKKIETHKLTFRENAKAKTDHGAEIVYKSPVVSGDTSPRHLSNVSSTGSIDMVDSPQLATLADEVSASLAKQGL

[2] = molecular target: T2, biotinylated tau peptide 412-441; experiment: ELISA on biotinylated 412-441 peptide
Protocol: as §1

[3] = molecular target: T3, full length human tau protein 2N4R …; experiment: direct ELISA
Protocol: as §1

dGA (tau 297-390) = dGA (tau 297-390) (human, UniProt P10636 614-707); experiment: direct ELISA
Protocol: as §1

dGAE (tau 297-391) = molecular target: T4, dGAE (tau 297-391) (human, UniProt P10636 614-708); experiment: SPR, scAb captured, tau analyte
T4 construct: monomer; also called dGAE95
Protocol: as §2, §3, §4

[4] = molecular target: T3, full length human tau protein 2N4R …; experiment: hT40 ELISA
Protocol: as §1

[5] = molecular target: T3, full length human tau protein 2N4R …; experiment: hT40 ELISA; remark: listed apart in the source
Target sequence in this assay (P10636 other isoform, or with tags, fused parts or gaps limits assumed): as above

tau fragment 1-155 = tau fragment 1-155 (human, UniProt P10636 1-472); experiment: direct ELISA
Protocol: as §1

[6] = molecular target: T3, full length human tau protein 2N4R …; experiment: Biacore
Protocol: as §2, §3, §4
Target sequence in this assay (P10636 other isoform, or with tags, fused parts or gaps limits assumed): as above

[7] = molecular target: T3, full length human tau protein 2N4R …; experiment: SPR, summary table
Protocol: as §2, §3, §4
Target sequence in this assay (P10636 other isoform, or with tags, fused parts or gaps limits assumed): as above

[8] = molecular target: T3, full length human tau protein 2N4R …; experiment: sandwich ELISA, S1D12 mAb capture, scAb detection
Protocol: Full length tau (hT40), at 1 μg/ml starting concentration was added to designated wells and double diluted across rest of the plates and left to incubate at R/T for 1 h. A series of detection scAbs with varying epitope recognition properties were added at 10 μg/ml to designated wells (FIG. 22). For colourimetric detection HRP conjugated anti-HuCk secondary antibody was used and the resulting immunoreaction was developed and absorbance at 450 nm measured as described previously. Cut-off point for a positive binding event was an absorbance value of 0.3 following background subtraction. In order to enhance the assay sensitivity, a chemiluminescent detection method was adopted where 50 μL SuperSignal ELISA Femto Substrate (Thermo Scientific) was added to each well following incubation with anti-HuCK HRP antibody and subsequent washing. The luminescence was read using Clariostar Plus microplate reader. A further modification to this protocol was done where various detection scAbs were directly conjugated with HRP and detected using chemiluminescent protocol as before.
Target sequence in this assay (P10636 other isoform, or with tags, fused parts or gaps limits assumed): as above

[9] = molecular target: T3, full length human tau protein 2N4R …; experiment: hT40 ELISA; remark: listed apart in the source
Target sequence in this assay (P10636 other isoform, or with tags, fused parts or gaps limits assumed): as above

aggregated dGAE [10] = molecular target: T5, aggregated dGAE (human, UniProt P10636 614-708, limits assumed); experiment: ELISA, direct immobilisation, SDS + Triton treated dGAE aggregates
T5 construct: dGAE aggregated in vitro with DTT, 700 rpm, 37 C, 24 h; also called dGAE aggregates; dGAE agg

aggregated dGAE [11] = molecular target: T5, aggregated dGAE; experiment: sandwich ELISA, S1D12 mAb capture, SDS + Triton treated dGAE aggregates
Protocol: For aggregation, 1000 μL 100 μM dGAE+10 μL 10 mM DTT was added to a ‘LoBind’ microfuge tubes and agitated at 700 RPM/37° C. for 24 hours. Resulting sample centrifuged at 17,000×g/4° C. for 60 min and supernatant discarded to remove left over monomer. Pellet resuspended in half the original volume for future experiments and hereafter referred to as ‘aggregates’. 1 μl of aggregates was added to 1 ml of PBS and SDS was added to a final concentration of 1% (w/v). This was left to incubate on lab bench for 1 h with gentle agitation every 15 minutes. In order to neutralize the SDS effect on ELISA, Triton X-100 added to a final concentration of 3% (v/v) and mixed gently by pipetting to prevent any bubble formation. […] Similarly aggregates treated with only SDS or Triton X-100, untreated aggregates, dGAE monomers treated with only SDS or SDS+Titon X-100 were also added to designated wells as controls. All samples were then double diluted across the plate in final volumes of 100 μl. The final column was left with no protein to act as a blank.

T4 sequence (P10636 614-708 limits assumed): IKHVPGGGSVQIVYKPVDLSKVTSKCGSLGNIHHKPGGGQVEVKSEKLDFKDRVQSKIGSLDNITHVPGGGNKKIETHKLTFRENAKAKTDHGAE
T5 sequence (P10636 614-708 limits assumed): as above
dGA (tau 297-390), sequence (P10636 614-707 limits assumed): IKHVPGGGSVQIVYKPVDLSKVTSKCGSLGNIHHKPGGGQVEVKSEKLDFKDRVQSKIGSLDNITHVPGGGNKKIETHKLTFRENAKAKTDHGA

Binder | binding result (tau fragment 1-49) | Kd [1] | koff [1] | kon [1] | EC50 (read off the curve) [2] | also measured
B1 | binds | 3.6 nM | 0.00987 s⁻¹ | 2.76e+06 M⁻¹ s⁻¹ |  | 
B2 |  |  |  |  | ~2 µg/mL | 
B3 |  |  |  |  |  | binding result [3]: no binding (tested: 25 ug/ml); binding result (dGA (tau 297-390)): no binding (tested: 25 ug/ml); Kd (dGAE (tau 297-391)): 6.3 nM; koff (dGAE (tau 297-391)): 0.0014 s⁻¹; kon (dGAE (tau 297-391)): 154000 M⁻¹ s⁻¹
B4 |  |  |  |  | ~2 µg/mL | EC50 (read off the curve) [4]: ~6 µg/mL; EC50 (read off the curve) [5]: ~6 µg/mL
B5 |  | 140 nM | 0.0153 s⁻¹ | 109000 M⁻¹ s⁻¹ |  | EC50 (read off the curve) (tau fragment 1-155): ~1 µg/mL
B6 |  | 3.16 nM | 0.00085 s⁻¹ | 271000 M⁻¹ s⁻¹ | ~0.4 µg/mL | Kd [6]: 3.3 nM; Kd [7]: 3.16 nM; EC50 (read off the curve) [4]: ~1 µg/mL; EC50 (read off the curve) [5]: ~1 µg/mL; LoD chemiluminescence detection [8]: 0.37 ng/mL; LoD colourimetric detection [8]: 20 ng/mL
B7 |  | 69 nM | 0.0143 s⁻¹ | 207000 M⁻¹ s⁻¹ |  | EC50 (read off the curve) (tau fragment 1-155): ~0.8 µg/mL
B8 |  |  |  |  |  | EC50 (read off the curve) [9]: ~0.02 µg/mL; LoD (aggregated dGAE [10]): 16 ng/mL; LoD (aggregated dGAE [11]): 2 ng/mL
B9 | binds | 19.1 nM | 0.0104 s⁻¹ | 544000 M⁻¹ s⁻¹ |  | 
B10 | binds | 8.9 nM | 0.0597 s⁻¹ | 6.67e+06 M⁻¹ s⁻¹ |  | 
